Test results as given in patent US20030027152, “Generation of diagnostic tools to assay the human LHX3/P-LIM/LIM-3 factor” (Indiana University Advanced Research and Technology …, published 2003).

Experiments:
hLhx3a [1] = molecular target: T1, hLhx3a (Homo sapiens, UniProt Q9UBR4 SEQ:1-397); test: EMSA; binds more effectively than hLhx3b; conditions: label: radiolabel
T1 sequence: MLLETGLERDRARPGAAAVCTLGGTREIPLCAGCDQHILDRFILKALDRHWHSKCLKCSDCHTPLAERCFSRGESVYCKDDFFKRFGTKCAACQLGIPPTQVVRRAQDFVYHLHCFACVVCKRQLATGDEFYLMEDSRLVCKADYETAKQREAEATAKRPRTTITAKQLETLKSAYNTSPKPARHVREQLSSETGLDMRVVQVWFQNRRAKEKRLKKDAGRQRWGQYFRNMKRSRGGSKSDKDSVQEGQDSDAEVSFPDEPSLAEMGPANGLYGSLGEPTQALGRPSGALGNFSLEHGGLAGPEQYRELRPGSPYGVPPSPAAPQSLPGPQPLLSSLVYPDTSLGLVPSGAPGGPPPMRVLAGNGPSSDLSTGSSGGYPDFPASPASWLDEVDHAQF
Procedure: (§1) Radiolabeled probes were incubated with the indicated proteins and competitor DNAs and the resulting complexes were separated from free probe (F) by electrophoresis. Lane 1, unprogrammed rabbit reticulocyte lysate as a negative control (lysate); lanes 2-5 (hLhx3a; hLhx3b; hLhx3a-myc; and hLhx36-myc, respectively), reactions contained in vitro translated hLhx3 proteins including isoforms comprising a myc tag epitope. A nonspecific band is noted by an asterisk (*). Human Lhx3 protein/DNA complexes are indicated by an arrow. Lane 6 depicts the lack of binding using GST as a negative control; lanes 7-14 (GST-hLhx3a, more GST-hLhx3a, comp plus hLhx3a, GST-hLhx3b; more GST-hLhx3b, comp plus hLhx3b, GST-hLhx3a, and GST-hLhx36, respectively) depict binding of the DNA probe by recombinant hLhx3 proteins expressed in E. coli. “Comp” denotes reactions containing approximately 1000-fold molar excess of unlabeled binding site as a competitor.
(§2) Without wishing to be bound by any particular theory, mechanisms for the different activities include the possibilities that the a-specific and b-specific domains are trans-activation or trans-repression domains, respectively, or that the a- and b-specific domains mediate interaction with distinct regulatory factors, or that the a- and b-specific domains modulate the DNA binding properties of hLhx3 differently. […]

GST-hLhx3a [2] = molecular target: T2, GST-hLhx3a (Homo sapiens, UniProt Q9UBR4 SEQ:1-397); test: EMSA; reduced by 1000-fold unlabeled competitor; conditions: tags: N-terminal GST (pGEX-KT); label: radiolabel
T2 sequence: T1 sequence
Procedure: (§3) FIG. 18B is an image of a gel depicting an electrophoretic mobility shift assay (EMSA) using Lhx3 consensus binding site (lanes 1-12) or αGSU gene −350 to −323 binding site (lanes 13 and 14) as oligonucleotide probes. Radiolabeled probes were incubated with the indicated proteins and competitor DNAs and the resulting complexes were separated from free probe (F) by electrophoresis. Lane 1, unprogrammed rabbit reticulocyte lysate as a negative control (lysate); lanes 2-5 (hLhx3a; hLhx3b; hLhx3a-myc; and hLhx36-myc, respectively), reactions contained in vitro translated hLhx3 proteins including isoforms comprising a myc tag epitope. A nonspecific band is noted by an asterisk (*). Human Lhx3 protein/DNA complexes are indicated by an arrow. Lane 6 depicts the lack of binding using GST as a negative control; lanes 7-14 (GST-hLhx3a, more GST-hLhx3a, comp plus hLhx3a, GST-hLhx3b; more GST-hLhx3b, comp plus hLhx3b, GST-hLhx3a, and GST-hLhx36, respectively) depict binding of the DNA probe by recombinant hLhx3 proteins expressed in E. coli. “Comp” denotes reactions containing approximately 1000-fold molar excess of unlabeled binding site as a competitor.

GST [3] = molecular target: T3, GST (UniProt P08515 P08515:1-218); test: EMSA; GST negative control; conditions: tags: GST alone, pGEX-KT; label: radiolabel
Procedure: as §3

hLhx3a-myc = molecular target: T4, hLhx3a-myc (Homo sapiens, UniProt Q9UBR4 SEQ:1-397); test: EMSA; similar to untagged; more effective than hLhx3b-myc; conditions: tags: C-terminal myc (pcDNA3.1/Myc-His); label: radiolabel
T4 sequence: T1 sequence
Procedure: as §1, §2

GST-ΔLIM pLhx3 [4] = molecular target: T5, GST-ΔLIM pLhx3 (Sus scrofa, UniProt O97581 SEQ:134-383); test: competition; 200 ng unlabeled mutant did not compete; conditions: tags: N-terminal GST (pGEX-KT)
T5 chain: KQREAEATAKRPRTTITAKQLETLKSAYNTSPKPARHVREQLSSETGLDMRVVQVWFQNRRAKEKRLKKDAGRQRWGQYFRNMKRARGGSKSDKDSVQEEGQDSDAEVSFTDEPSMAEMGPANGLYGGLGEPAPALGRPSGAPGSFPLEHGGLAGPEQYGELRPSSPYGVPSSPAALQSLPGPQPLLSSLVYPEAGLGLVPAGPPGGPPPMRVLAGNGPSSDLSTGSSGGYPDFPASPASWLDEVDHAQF
Procedure: (§4) FIG. 4B is an image depicting an analysis of recombinant porcine pLhx3 protein binding to DNA target sequences. The image depicts electrophoretic mobility shift assay using labeled wild type and mutant oligonucleotides representing the −351 to −324 bp region of the porcine αGSU gene promoter. Probes were incubated with the indicated proteins and competitor DNA and the resulting complexes were separated from free probe (F) by electrophoresis. The panel on the right of the figure was exposed three times as long as the left-hand panel to detect weak binding of GST-pLhx3 to the porcine αGSU binding site (which is indicated by an arrow).

hLhx3a [5] = molecular target: T1, hLhx3a; test: EMSA; in vitro translated; text states more effective than hLhx3b at both sites; conditions: label: radiolabel
Procedure: as §1, §2

GST-hLhx3a [6] = molecular target: T2, GST-hLhx3a; test: EMSA; binds more effectively than GST-hLhx3b; conditions: tags: N-terminal GST (pGEX-KT); label: radiolabel
Procedure: as §3

GST [7] = molecular target: T3, GST; test: EMSA; GST negative control; conditions: tags: GST alone, pGEX-KT; label: radiolabel; remark: listed apart in the source
Procedure: as §4

GST-ΔLIM pLhx3 [8] = molecular target: T5, GST-ΔLIM pLhx3; test: EMSA; affinity relative to full-length GST-pLhx3 (LIM deletion); competed by unlabeled wild type; conditions: tags: N-terminal GST (pGEX-KT); label: radiolabel
Procedure: as §4

T3 sequence (P08515 whole entry, one chain of several): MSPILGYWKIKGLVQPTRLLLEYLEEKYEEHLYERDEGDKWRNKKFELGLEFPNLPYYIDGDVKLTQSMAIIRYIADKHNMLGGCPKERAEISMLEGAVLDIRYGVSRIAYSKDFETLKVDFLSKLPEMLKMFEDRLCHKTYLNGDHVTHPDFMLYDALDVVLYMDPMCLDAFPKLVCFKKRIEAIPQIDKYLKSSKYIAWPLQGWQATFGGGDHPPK

B1: Lhx3 consensus binding site (dsDNA)
DNA 1: CAGAAAATTAATTAATTGTAA
DNA 2: TTACAATTAATTAATTTTCTG
B1: binds (hLhx3a [1]); binds (GST-hLhx3a [2]); no binding (GST [3]). B1: binds (hLhx3a-myc).

B2: porcine αGSU -351/-324 mutant (dsDNA)
DNA 1: ACATTAGGTACTTGGCGCGCCAAATGTG
DNA 2: CACATTTGGCGCGCCAAGTACCTAATGT
B2: no binding (GST-ΔLIM pLhx3 [4]).

B3: αGSU -350/-323 (PGBE) (dsDNA)
DNA 1: ACATTAGGTACTTAGCTAATTAAATGTG
DNA 2: CACATTTAATTAGCTAAGTACCTAATGT
B3: binds (hLhx3a [5]); binds (GST-hLhx3a [6]).

B4: porcine αGSU -351/-324 wild type (dsDNA)
DNA 1: ACATTAGGTACTTAGCTAATTAAATGTG
DNA 2: CACATTTAATTAGCTAAGTACCTAATGT
B4 was tested, and the binding result (GST [7]) was “no binding” and the binding signal (GST-ΔLIM pLhx3 [8]) was no less than 15 fold.
